From article PMC6781444

Biological target: 80S ribosome (rabbit (endogenous in reticulocyte lysate))
Assay: co-sedimentation

Substance	fold reduction of cosedimentation against WT SR [fold]
SRdC, SRαβΔTM with the CBR of SRα (residues 129–176) replaced with (GS)6 (from UniProt P08240;Q9Y5M8) (complex)	> 2
SRdR, SRαβΔTM with the RBR of SRα (residues 205–250) replaced with (GS)6 (from UniProt P08240;Q9Y5M8) (complex)	> 2
